T1: canine NGF (canine, UniProt Q29074 110-229 (pig entry), limits assumed)
T1 construct: The protein was secreted from CHO cells and purified; also called cNGF; canine β-NGF
T1 chain: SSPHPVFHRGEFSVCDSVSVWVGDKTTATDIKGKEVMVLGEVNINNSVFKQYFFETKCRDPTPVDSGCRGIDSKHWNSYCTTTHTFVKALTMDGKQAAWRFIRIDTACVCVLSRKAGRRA

T2: human NGF (human, UniProt P01138 122-241)
T2 construct: also called human Nerve Growth Factor; hN
T2 chain: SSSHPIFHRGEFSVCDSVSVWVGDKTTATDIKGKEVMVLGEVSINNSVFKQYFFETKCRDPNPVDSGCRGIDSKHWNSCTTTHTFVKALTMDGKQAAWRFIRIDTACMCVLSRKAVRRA

B1: can9L12VH_E99A (antibody, V domains shown)
VH: EVQLVESGGDLVKPGGSLRLSCVASGFTFSSHGMHWVRQSPGKGLQWVAVINSGGSSTYYTDAVKGRFTISRDNAKNTVYLQMNSLRAEDTAMYYCAKASVGGWEQLVGPHFDYWGQGTLVIVSS
VL: QSVLTQPTSVSGSLGQRVTISCSGSTNNIGILGASWYQLFPGKAPKLLVYGNGNRPSGVPDRFSGADSGDSVTLTITGLQAEDEADYYCQSFDTTLGAHVFGGGTHLTVL
B2: can9L12VH_G55A (antibody, V domains shown)
VH: EVQLVESGGDLVKPGGSLRLSCVASGFTFSSHGMHWVRQSPGKGLQWVAVINSGASSTYYTDAVKGRFTISRDNAKNTVYLQMNSLRAEDTAMYYCAKESVGGWEQLVGPHFDYWGQGTLVIVSS
VL: QSVLTQPTSVSGSLGQRVTISCSGSTNNIGILGASWYQLFPGKAPKLLVYGNGNRPSGVPDRFSGADSGDSVTLTITGLQAEDEADYYCQSFDTTLGAHVFGGGTHLTVL
B3: can9L12VH_F27A (antibody, V domains shown)
VH: EVQLVESGGDLVKPGGSLRLSCVASGATFSSHGMHWVRQSPGKGLQWVAVINSGGSSTYYTDAVKGRFTISRDNAKNTVYLQMNSLRAEDTAMYYCAKESVGGWEQLVGPHFDYWGQGTLVIVSS
VL: QSVLTQPTSVSGSLGQRVTISCSGSTNNIGILGASWYQLFPGKAPKLLVYGNGNRPSGVPDRFSGADSGDSVTLTITGLQAEDEADYYCQSFDTTLGAHVFGGGTHLTVL
B4: can9L12VH_H32A (antibody, V domains shown)
VH: EVQLVESGGDLVKPGGSLRLSCVASGFTFSSAGMHWVRQSPGKGLQWVAVINSGGSSTYYTDAVKGRFTISRDNAKNTVYLQMNSLRAEDTAMYYCAKESVGGWEQLVGPHFDYWGQGTLVIVSS
VL: QSVLTQPTSVSGSLGQRVTISCSGSTNNIGILGASWYQLFPGKAPKLLVYGNGNRPSGVPDRFSGADSGDSVTLTITGLQAEDEADYYCQSFDTTLGAHVFGGGTHLTVL
B5: can9L12VH_G33A (antibody, V domains shown)
VH: EVQLVESGGDLVKPGGSLRLSCVASGFTFSSHAMHWVRQSPGKGLQWVAVINSGGSSTYYTDAVKGRFTISRDNAKNTVYLQMNSLRAEDTAMYYCAKESVGGWEQLVGPHFDYWGQGTLVIVSS
VL: QSVLTQPTSVSGSLGQRVTISCSGSTNNIGILGASWYQLFPGKAPKLLVYGNGNRPSGVPDRFSGADSGDSVTLTITGLQAEDEADYYCQSFDTTLGAHVFGGGTHLTVL
B6: can9L12VH_G26A (antibody, V domains shown)
VH: EVQLVESGGDLVKPGGSLRLSCVASAFTFSSHGMHWVRQSPGKGLQWVAVINSGGSSTYYTDAVKGRFTISRDNAKNTVYLQMNSLRAEDTAMYYCAKESVGGWEQLVGPHFDYWGQGTLVIVSS
VL: QSVLTQPTSVSGSLGQRVTISCSGSTNNIGILGASWYQLFPGKAPKLLVYGNGNRPSGVPDRFSGADSGDSVTLTITGLQAEDEADYYCQSFDTTLGAHVFGGGTHLTVL
B7: can9L12VH_G103A (antibody, V domains shown)
VH: EVQLVESGGDLVKPGGSLRLSCVASGFTFSSHGMHWVRQSPGKGLQWVAVINSGGSSTYYTDAVKGRFTISRDNAKNTVYLQMNSLRAEDTAMYYCAKESVGAWEQLVGPHFDYWGQGTLVIVSS
VL: QSVLTQPTSVSGSLGQRVTISCSGSTNNIGILGASWYQLFPGKAPKLLVYGNGNRPSGVPDRFSGADSGDSVTLTITGLQAEDEADYYCQSFDTTLGAHVFGGGTHLTVL
B8: can9L12VH_G54A (antibody, V domains shown)
VH: EVQLVESGGDLVKPGGSLRLSCVASGFTFSSHGMHWVRQSPGKGLQWVAVINSAGSSTYYTDAVKGRFTISRDNAKNTVYLQMNSLRAEDTAMYYCAKESVGGWEQLVGPHFDYWGQGTLVIVSS
VL: QSVLTQPTSVSGSLGQRVTISCSGSTNNIGILGASWYQLFPGKAPKLLVYGNGNRPSGVPDRFSGADSGDSVTLTITGLQAEDEADYYCQSFDTTLGAHVFGGGTHLTVL
B9: can9L12VH_F29A (antibody, V domains shown)
VH: EVQLVESGGDLVKPGGSLRLSCVASGFTASSHGMHWVRQSPGKGLQWVAVINSGGSSTYYTDAVKGRFTISRDNAKNTVYLQMNSLRAEDTAMYYCAKESVGGWEQLVGPHFDYWGQGTLVIVSS
VL: QSVLTQPTSVSGSLGQRVTISCSGSTNNIGILGASWYQLFPGKAPKLLVYGNGNRPSGVPDRFSGADSGDSVTLTITGLQAEDEADYYCQSFDTTLGAHVFGGGTHLTVL
B10: can9L12VH_G102A (antibody, V domains shown)
VH: EVQLVESGGDLVKPGGSLRLSCVASGFTFSSHGMHWVRQSPGKGLQWVAVINSGGSSTYYTDAVKGRFTISRDNAKNTVYLQMNSLRAEDTAMYYCAKESVAGWEQLVGPHFDYWGQGTLVIVSS
VL: QSVLTQPTSVSGSLGQRVTISCSGSTNNIGILGASWYQLFPGKAPKLLVYGNGNRPSGVPDRFSGADSGDSVTLTITGLQAEDEADYYCQSFDTTLGAHVFGGGTHLTVL
B11: can9L12VH_E105A (antibody, V domains shown)
VH: EVQLVESGGDLVKPGGSLRLSCVASGFTFSSHGMHWVRQSPGKGLQWVAVINSGGSSTYYTDAVKGRFTISRDNAKNTVYLQMNSLRAEDTAMYYCAKESVGGWAQLVGPHFDYWGQGTLVIVSS
VL: QSVLTQPTSVSGSLGQRVTISCSGSTNNIGILGASWYQLFPGKAPKLLVYGNGNRPSGVPDRFSGADSGDSVTLTITGLQAEDEADYYCQSFDTTLGAHVFGGGTHLTVL
B12: can9L12VH_G109A (antibody, V domains shown)
VH: EVQLVESGGDLVKPGGSLRLSCVASGFTFSSHGMHWVRQSPGKGLQWVAVINSGGSSTYYTDAVKGRFTISRDNAKNTVYLQMNSLRAEDTAMYYCAKESVGGWEQLVAPHFDYWGQGTLVIVSS
VL: QSVLTQPTSVSGSLGQRVTISCSGSTNNIGILGASWYQLFPGKAPKLLVYGNGNRPSGVPDRFSGADSGDSVTLTITGLQAEDEADYYCQSFDTTLGAHVFGGGTHLTVL
B13: can9L12VH_F112A (antibody, V domains shown)
VH: EVQLVESGGDLVKPGGSLRLSCVASGFTFSSHGMHWVRQSPGKGLQWVAVINSGGSSTYYTDAVKGRFTISRDNAKNTVYLQMNSLRAEDTAMYYCAKESVGGWEQLVGPHADYWGQGTLVIVSS
VL: QSVLTQPTSVSGSLGQRVTISCSGSTNNIGILGASWYQLFPGKAPKLLVYGNGNRPSGVPDRFSGADSGDSVTLTITGLQAEDEADYYCQSFDTTLGAHVFGGGTHLTVL

Tests used:
Assay in all cases: SPR (Biacore T200), 100 nM mAb on NGF chip, similarity to parent mAb
canine NGF = biological target: T1, canine NGF
Text: (§1) The region of an antibody responsible for antigen recognition represents the paratope. A paratope is created by a combination of amino acids in the complementarity determining regions (CDRs) of both the heavy and light chain variable regions. The binding between antibody and antigen is often mediated by side chains of CDR residues with side chains or carbohydrate moieties of the antigen. To help define critical side chains involved in antibody recognition alanine scanning mutagenesis was performed on each CDR residue in both the heavy and light chain, the technique as described by Cunningham and Wells (1989) Science, Vol. 244, Issue 4908, pp. 1081-1085. These mutants were then individually tested for the ability to NGF using the Biacore. […] Values were then compared to the wild type antibodies and are represented in the tables as a percent of wild type binding. The data presented in Tables 4 and 5 below are shown as a “percent similarity score” compared to wild type.
(§2) The mean response unit of four replicates of the parent mAb+/−3 standard deviations was used to generate parameters to define a threshold of response units comprising both the on- and off-rates antibody binding. The percentage of data points for each mutant fell within this threshold was then used to define a “% similarity score”. […] Results from substitution of alanine at each CDR position

rat NGF = biological target: T3, rat NGF (rat, UniProt P25427 122-241)
T3 construct: also called rN
Text: as §1, §2

human NGF = biological target: T2, human NGF
Text: as §1, §2

T3 sequence (P25427 122-241 limits assumed): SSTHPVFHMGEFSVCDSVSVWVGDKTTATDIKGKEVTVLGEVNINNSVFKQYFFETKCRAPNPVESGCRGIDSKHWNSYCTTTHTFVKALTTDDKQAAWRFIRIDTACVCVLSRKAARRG

Row | Binder | Percent Similarity Score (KD on cN) (canine NGF) | Percent Similarity Score (KD on rN) (rat NGF) | Percent Similarity Score (KD on hN) (human NGF)
1 | B1 | 97.7% | 80.5% | 82%
2 | B2 | 100% | 99.3% | 100%
3 | B3 | 100% | 100% | 100%
4 | B4 | 38.2% | 51.5% | 13.8%
5 | B5 | 100% | 99.9% | 100%
6 | B6 | 100% | 94.8% | 97.4%
7 | B7 | 99.8% | 62.5% | 38.2%
8 | B8 | 100% | 93.8% | 96.2%
9 | B9 | 100% | 99.9% | 100%
10 | B10 | 11% | 4.7% | 3.4%
11 | B11 | 100% | 100% | 98.4%
12 | B12 | 100% | 62% | 40%
13 | B13 | 28.3% | 11.8% | 8%
